Source: patent US20240317884A1, “METHOD FOR ALLOWING IMMUNE CELLS INFILTRATION IN TUMORS” (Alethia Biotherapeutics Inc., priority 2021, published 2024)
Values joined by “and” are separate entries in the source; they are usually repeats but may differ in a detail not shown here. Identical values can stand only once. “Also recorded” adds a separate entry of the source.

Assays:
[1] = test system: tumor biopsies; test: Phase I: necrosis in tumor biopsies; type: in vivo, human; conditions: for Necrosis Pre-Treatment: baseline
Experimental: Tumor biopsies were collected during the standard dose escalation to investigate the presence of AB-16B5 within the tumor. A total of 4 pre-treatment and 5 post-treatment tumor biopsies were suitable for analysis. These post-treatment tumor biopsies were collected following dosing on Cycle 2 Day 15 (between Cycle 2 Day 15 and Cycle 2 Day 18). The biopsy sites were liver (n=2), lymph node (n=2), bladder, skin and vulva.
(§1) Immunohistochemistry studies were conducted on paired tumor biopsies to determine if the treatment with AB-16B5 was associated with a reacquisition of an epithelial phenotype.

[2] = test system: E-cadherin, vimentin; test: Phase I: immunohistochemistry on paired tumor biopsies (epithelial phenotype); type: in vivo, human
Experimental: as §1

[3] = Phase I study AB-16B5-101: safety profile; type: in vivo, human
[4] = target: T1, sCLU (Macaca mulatta, UniProt F6S885); test: sCLU serum concentrations after single dose of AB-16B5; type: in vivo; conditions: Rhesus monkeys
T1 construct: from tissue; host or cells: serum of Rhesus monkeys dosed with AB-16B5
Text: There was an approximate 70% increase in systemic exposure following repeated dosing from Day 1 to Day 26 which is consistent with the elimination half-life of AB-16B5 and the dosing intervals. […] The sCLU concentrations were generally back to their baseline levels after 3 to 5 days. The concurrent decrease in sCLU concentrations immediately following dosing with AB-16B5 is consistent with an antigen-sink phenomenon.

[5] = test system: frozen tissues from human, Rhesus monkey, and Sprague-Dawley rat; test: Tissue cross-reactivity study; type: binding; conditions: AB-16B5 staining at 2 and 10 μg/mL
Experimental: In addition, a tissue cross-reactivity study was conducted to determine the potential cross-reactivity of AB-16B5 with frozen tissues from human, Rhesus monkey, and Sprague-Dawley rat tissues.

[6] = Phase I: plasma pharmacokinetics (non-compartmental analysis); type: in vivo, human; conditions: plasma, first dose of cycle; for AUC0-t / Cmax / Thalf: mean; for Tmax: median
Text: Plasma PK parameters for AB-16B5 were derived from the concentration-time profiles following the first dose of Cycle 1 and the first dose of Cycle 2 using a non-compartmental analysis (NCA) with Phoenix WinNonlin.

[7] = Subject 006, Breast, biopsy site Skin, 9.0 mg/kg
[8] = Subject 007, Gastric, biopsy site Gastric, 9.0 mg/kg
[9] = Subject 012, Breast, biopsy site Skin, 12.0 mg/kg
[10] = Subject 013, Prostate, biopsy site Bladder, 12.0 mg/kg

T1 sequence (F6S885 22-448): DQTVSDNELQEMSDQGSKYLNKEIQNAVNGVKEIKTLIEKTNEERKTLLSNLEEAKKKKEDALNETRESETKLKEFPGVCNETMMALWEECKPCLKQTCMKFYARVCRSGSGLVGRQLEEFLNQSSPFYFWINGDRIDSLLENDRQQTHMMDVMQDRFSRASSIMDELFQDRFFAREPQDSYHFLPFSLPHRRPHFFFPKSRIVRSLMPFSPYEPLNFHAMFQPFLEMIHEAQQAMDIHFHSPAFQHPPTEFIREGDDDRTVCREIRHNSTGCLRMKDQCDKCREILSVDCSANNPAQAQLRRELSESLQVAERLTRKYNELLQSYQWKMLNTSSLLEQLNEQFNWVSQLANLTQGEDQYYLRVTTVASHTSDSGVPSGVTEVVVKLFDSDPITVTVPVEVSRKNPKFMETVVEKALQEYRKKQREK

AB-16B5: humanized IgG2 monoclonal antibody targeting sCLU; light chain SEQ ID NO:11, heavy chain SEQ ID NO:12
Necrosis Post-Treatment [1, 7]: 10% | Necrosis Pre-Treatment ([1]; Subject 006, Breast, biopsy site Skin): 0% | Necrosis Post-Treatment [1, 8]: 0% | Necrosis Pre-Treatment ([1]; Subject 007, Gastric, biopsy site Gastric): 0% | Necrosis Post-Treatment [1, 9]: 5% | Necrosis Pre-Treatment ([1]; Subject 012, Breast, biopsy site Skin): 0% | Necrosis Post-Treatment [1, 10]: 10% | Necrosis Pre-Treatment ([1]; Subject 013, Prostate, biopsy site Bladder): 0% | E-cadherin Expression in Post-Treatment [2, 7]: Increase | E-cadherin Expression in Post-Treatment [2, 8]: Increase | vimentin expression after treatment ([2]; Subject 007, advanced gastric cancer, paired tumor biopsies): loss of vimentin expression | E-cadherin Expression in Post-Treatment [2, 9]: Decrease | E-cadherin Expression in Post-Treatment [2, 10]: did not change; also recorded: No change | subjects reporting SAEs ([3]; 5 of 15 subjects, all SAEs considered unrelated to AB-16B5): 33% | AEs reported, total ([3]; 15 subjects, all causalities): 167 | dose at which weekly infusion was safe and well tolerated ([3]; 60-minute IV weekly infusion): up to 12 mg/kg | dose-limiting toxicity ([3]; 60-minute IV weekly infusion, 1.5 to 12.0 mg/kg, 15 subjects): No dose-limiting toxicity; also recorded: No dose-limiting toxicities | deaths reported in the study ([3]; Subjects 004 and 014, associated with progression of the disease): Two | number of SAEs ([3]; all considered unrelated to AB-16B5): 6 and 5 | AEs of Grade 3 to 5 ([3]; reported by 8 subjects): 12 | subjects who discontinued the study due to an adverse event ([3]; two subjects (004, 011)): 13% | sCLU serum concentrations following dosing [4]: decreased significantly | membrane staining in tissue panels [5]: no membrane staining was observed | AUC0-t ([6]; Cycle 1, 1.5 mg/kg (N = 1)): 230,321 ng*h/mL | Cmax ([6]; Cycle 1, 1.5 mg/kg (N = 1)): 17,958 ng/mL | Thalf ([6]; Cycle 1, 1.5 mg/kg (N = 1)): 9.35 h | Tmax ([6]; Cycle 1, 1.5 mg/kg (N = 1)): 1.17 h | AUC0-t ([6]; Cycle 1, 3.0 mg/kg (N = 1)): 645,602 ng*h/mL | Cmax ([6]; Cycle 1, 3.0 mg/kg (N = 1)): 50,736 ng/mL | Thalf ([6]; Cycle 1, 3.0 mg/kg (N = 1)): 7.39 h | Tmax ([6]; Cycle 1, 3.0 mg/kg (N = 1)): 1.08 h | AUC0-t ([6]; Cycle 1, 6.0 mg/kg (N = 3)): 1,357,773 ng*h/mL | Cmax ([6]; Cycle 1, 6.0 mg/kg (N = 3)): 117,663 ng/mL | Thalf ([6]; Cycle 1, 6.0 mg/kg (N = 3)): 6.99 h | Tmax ([6]; Cycle 1, 6.0 mg/kg (N = 3)): 1.00 h | AUC0-t ([6]; Cycle 1, 9.0 mg/kg (N = 3)): 2,083,091 ng*h/mL | Cmax ([6]; Cycle 1, 9.0 mg/kg (N = 3)): 162,103 ng/mL | Thalf ([6]; Cycle 1, 9.0 mg/kg (N = 3)): 10.78 h | Tmax ([6]; Cycle 1, 9.0 mg/kg (N = 3)): 2.00 h | AUC0-t ([6]; Cycle 1, 12.0 mg/kg (N = 7)): 4,045,786 ng*h/mL | Cmax ([6]; Cycle 1, 12.0 mg/kg (N = 7)): 256,977 ng/mL | Thalf ([6]; Cycle 1, 12.0 mg/kg (N = 7)): 11.99 h | Tmax ([6]; Cycle 1, 12.0 mg/kg (N = 7)): 1.12 h | AUC0-t ([6]; Cycle 2, 1.5 mg/kg (N = 1)): 188,584 ng*h/mL | Cmax ([6]; Cycle 2, 1.5 mg/kg (N = 1)): 15,662 ng/mL | Thalf ([6]; Cycle 2, 1.5 mg/kg (N = 1)): 7.97 h | Tmax ([6]; Cycle 2, 1.5 mg/kg (N = 1)): 1.00 h | AUC0-t ([6]; Cycle 2, 3.0 mg/kg (N = 1)): 688,934 ng*h/mL | Cmax ([6]; Cycle 2, 3.0 mg/kg (N = 1)): 61,466 ng/mL | Thalf ([6]; Cycle 2, 3.0 mg/kg (N = 1)): 6.82 h | Tmax ([6]; Cycle 2, 3.0 mg/kg (N = 1)): 1.05 h | AUC0-t ([6]; Cycle 2, 6.0 mg/kg (N = 3)): 1,351,156 ng*h/mL | Cmax ([6]; Cycle 2, 6.0 mg/kg (N = 3)): 120,466 ng/mL | Thalf ([6]; Cycle 2, 6.0 mg/kg (N = 3)): 7.70 h | Tmax ([6]; Cycle 2, 6.0 mg/kg (N = 3)): 1.03 h
